The values that follow come from patent publication US20250281630A1 (TORAY INDUSTRIES, published 2025).

Positions count from the first letter of the chain named.

The chains are these.
T1: mouse CAPRIN-1 on mouse cancer cells (mouse, UniProt Q60865 2-707)
T1 construct: whole, on cells
T1 sequence (looked up): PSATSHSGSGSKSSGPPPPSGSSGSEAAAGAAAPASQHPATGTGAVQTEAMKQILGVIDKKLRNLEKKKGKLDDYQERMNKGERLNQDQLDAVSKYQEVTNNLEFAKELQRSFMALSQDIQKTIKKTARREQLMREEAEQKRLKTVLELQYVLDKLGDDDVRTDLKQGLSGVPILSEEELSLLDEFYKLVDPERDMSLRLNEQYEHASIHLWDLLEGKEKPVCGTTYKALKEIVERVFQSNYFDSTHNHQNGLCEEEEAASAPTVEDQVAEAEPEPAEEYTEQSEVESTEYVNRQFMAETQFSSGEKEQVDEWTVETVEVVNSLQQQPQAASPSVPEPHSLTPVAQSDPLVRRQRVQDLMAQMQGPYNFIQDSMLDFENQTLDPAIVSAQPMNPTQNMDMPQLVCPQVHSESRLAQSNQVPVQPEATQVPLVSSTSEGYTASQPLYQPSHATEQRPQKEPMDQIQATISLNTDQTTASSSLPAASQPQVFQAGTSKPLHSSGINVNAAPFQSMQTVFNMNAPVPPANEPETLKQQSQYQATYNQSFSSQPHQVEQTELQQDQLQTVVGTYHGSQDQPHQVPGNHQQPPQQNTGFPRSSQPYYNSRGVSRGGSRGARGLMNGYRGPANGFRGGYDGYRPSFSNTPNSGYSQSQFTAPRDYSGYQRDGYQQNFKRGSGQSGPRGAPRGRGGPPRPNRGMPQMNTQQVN

T2: human CAPRIN-1 on the cell membrane surface of human cancer cells (human, UniProt Q14444 2-709)
T2 construct: whole, on cells
T2 sequence (looked up): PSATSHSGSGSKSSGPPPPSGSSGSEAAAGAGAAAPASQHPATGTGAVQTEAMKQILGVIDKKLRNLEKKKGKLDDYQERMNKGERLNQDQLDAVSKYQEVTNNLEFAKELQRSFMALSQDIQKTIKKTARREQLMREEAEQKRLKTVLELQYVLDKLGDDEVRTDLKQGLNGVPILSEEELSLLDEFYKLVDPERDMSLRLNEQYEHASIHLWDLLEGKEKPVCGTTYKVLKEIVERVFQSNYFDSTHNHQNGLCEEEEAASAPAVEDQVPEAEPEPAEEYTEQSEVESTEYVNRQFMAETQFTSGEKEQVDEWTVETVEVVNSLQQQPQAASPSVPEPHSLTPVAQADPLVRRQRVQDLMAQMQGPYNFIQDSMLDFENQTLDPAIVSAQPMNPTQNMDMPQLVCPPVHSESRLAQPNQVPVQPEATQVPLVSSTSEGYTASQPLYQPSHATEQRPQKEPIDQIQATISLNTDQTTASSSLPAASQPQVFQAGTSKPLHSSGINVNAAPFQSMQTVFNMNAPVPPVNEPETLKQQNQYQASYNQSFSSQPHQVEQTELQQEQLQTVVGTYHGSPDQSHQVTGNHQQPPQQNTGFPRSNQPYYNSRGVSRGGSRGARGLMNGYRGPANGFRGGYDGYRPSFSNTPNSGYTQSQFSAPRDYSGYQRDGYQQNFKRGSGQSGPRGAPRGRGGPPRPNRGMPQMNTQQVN

B1: Conjugate 19 (antibody, human IgG1, V domains shown)
VH: GAELVRSGASVKMSCKASGYSFTDYNMYWVKQTPGQGLEWIGYIYPGNGGTNYNQKFKGKATLTADTSSSTAYMQISSLTSEDSAVYFCARDYDDGGYAMDYWGQGTTVTVSS
VL: DIQMTQSPASLSASVGETVTITCRASGNIHNYLTWYQQKQGKSPQLLVYNAKTLADGVPSRFSGSGSGTQYSLKINRLQPEDFGSYYCQHFWNIPWTFGGGTKLNSR
notes: human IgG1 constant regions; also called conjugate with MMAE using humanized antibody #13
B2: Conjugate 20 (antibody, human IgG1, V domains shown)
VH: DAELVKPGASVKISCKASGYTFTDHSIHWVQQKPEQGLEWIGYISPGNGNIKYNEKFKGKATLTADKSSSTAYMQLNSLTSEDSAVYFCKRSLGRGGPYYFDYWGQGTTVTVSS
VL: DIVLTQAAPSLPVTPGESVSISCRSSKSLLHSNGNTYLYWFLQRPGQSPQLLIYRMSNLASGVPDRFSGSGSGTAFTLRISRVEAEDVGVYYCMQHREYPVTFGSGPN
notes: human IgG1 constant regions; also called conjugate with MMAE using humanized antibody #14
B3: Conjugate 15 (antibody, human IgG1, V domains shown)
VH: AVTLDESGGGLQTPGGALSLVCKASGFTFSGYDMLWVRQAPGKGLEWVAGIGSTGGGTDYGAAVKGRATISRDNGQSTVRLQLNNLRAEDTATYYCAKVAGGCNSGYCRDSPGSIDAWGHGTEVIVS
VL: AVTQQPASVSANPGETVKITCSGGGSRNYYGWYQQKSPGSVPVTVIYYDDQRPSNIPSRFSGALSGSTSTLTITGVQADDEAVYFCGSADSNTYEGSFGAGTTLTVL
notes: human IgG1 constant regions; also called conjugate with MMAE using humanized antibody #9
B4: Conjugate 42 (antibody, human IgG1, V domains shown)
VH: EVQLVESGGGLVQPGGSLRLSCAASGFSLSSHSLGWVRQAPGKGLEWIGDIRSGGSAYYANWAKGRFTISRDNSKNTLYLQMNSLRAEDTAVYYCTRTNGPSDLTNRLDLWGQGTLVTVSS
VL: QVLTQSPSSLSASVGDRVTINCQASQSLYNNENLAWFQQKPGKVPKRLIYGASTLASGVSSRFSGSGSGTEFTLTISSLQCEDFAIYYCLGEFSCGSADCFAFGGGTKVEIK
notes: human IgG1 constant regions; also called conjugate with MMAE using humanized antibody #36
B5: Conjugate 44 (antibody, human IgG1, V domains shown)
VH: B4 VH
VL: EQVLTQSPSSLSASVGDRVTINCQASQSLYNNENLAWFQQKPGKVPKRLIYGASTLASGVSSRFSGSGSGTEFTLTISNLQPEDFAIYYCLGEFSCGSADCFAFGGGTKVEIK
notes: human IgG1 constant regions; also called conjugate with MMAE using humanized antibody #38
B6: Conjugate 8 (antibody, human IgG1, V domains shown)
VH: B4 VH with V2Q, Q3S
VL: B4 VL
notes: human IgG1 constant regions; also called conjugate with MMAE using humanized antibody #2
B7: Conjugate 43 (antibody, human IgG1, V domains shown)
VH: B4 VH with Y94F
VL: B4 VL
notes: human IgG1 constant regions; also called conjugate with MMAE using humanized antibody #37
B8: Conjugate 123 (antibody, V domains shown)
VH: B4 VH with Y94F
VL: B4 VL
notes: as for B7
B9: Conjugate 88 (antibody, V domains shown)
VH: B4 VH with V2Q, Q3S
VL: B4 VL
notes: as for B6
B10: Conjugate 45 (antibody, human IgG1, V domains shown)
VH: B4 VH with Y94F
VL: B5 VL with Q2I, I87T
notes: human IgG1 constant regions; also called conjugate with MMAE using humanized antibody #39

The target in one assay is T1, mouse CAPRIN-1 on mouse cancer cells. Kind of assay: flow cytometry, Renca and 4T1 cells.
Turning to B1, the binding result was “binds”.
Take B2: the binding result is listed as “binds”.
With B3, the binding result is “binds”.
In the case of B4, the binding result was “binds”.
On to B5, for which the binding result is listed as “binds”.
On to B6, for which the binding result is listed as “binds”.
For the molecule B7, the binding result was “binds”.
Take B8: the binding result is “binds”.
Same read-out and setting: for B9 the value was “binds”; for B10, “binds”.

The target in another assay is T2, human CAPRIN-1 on the cell membrane …. Kind of assay: flow cytometry, BT474 cells. The method, then:
The tube was left at 4° C. for 1 hour. After washing with PBS, Alexa 488-labeled anti-rabbit IgG (H+L) diluted 100-fold with PBS(-) containing 0.5% FBS (0.5% FBS-PBS(-)) was added thereto, and the tube was left at 4° C. for 1 hour. After washing with 0.5% FBS-PBS(-), the cells were reacted with BD Horizon Fixable Viability Stain (FVS) Reagents (FVS450, Becton, Dickinson and Company) to stain dead cells, and the fluorescence intensity was then measured using FACSFortessa™ (Becton, Dickinson and Company).
Regarding B1, the binding result is “binds”.
Still for that read-out and setting: the same measure for B2: “binds”; for B3: “binds”; for B4: “binds”.
In the case of B5, the binding result is “binds”.
With B6, the binding result is given as “binds”.
Same read-out and setting: the same measure for B7: “binds”.
Turning to B8, the binding result is recorded as “binds”.
The same measure, in the same setting: the same measure for B9: “binds”; for B10: “binds”.
